{"source": "patent US20240324599A1", "about": "“PESTICIDAL ENZYMES FOR USE ON NEMATODES, INSECTS, AND MOLLUSKS” (priority 2023, published 2024)", "molecules": {"B1": {"name": "Pseudomonas sp. Esterase (protein, listed as Pseudomonas sp.)", "chain": "MTEPLILQPVKPADACVIWLHGLGADRYDFLPVAEALQEILLSTRFVLPQAPTRPVTINGGYAMPSWYDIKAMSPARAIDRDELEASADRIIELIEEQRSSGIDASRIFLAGFSQGGAVVYHTAFLKWQGPLGGVLALSTYAPTFSDELELSASQQRIPVLSLHGQFDNVVQNSMGRTAYEYLKAHGVTVTWQEYPMEHEVLPEEIRDIGTWLSERLR"}, "B2": {"name": "Beauveria bassiana Feruloyl Esterase A2 (protein, listed as Beauveria bassiana)", "chain": "MLSLLGFLGFAALAAAAPVRDQAFIPRTLVNRSIYDKLALYAGYTQLSNTGICARPSVPGVLYQFVESKDTDTQVSIWKVDAYKEFVIAIPGTSSARDNETNFDFALVPYQADNVRCPSCRVHKGYQAAWRSVMKQVQGNLTNLLGIHPDYTVTLTGHSLGGGLVSIAFPTLRNGPYNVTQAYTYGQPRAGNGAFANYVDGISGASDKEAGIFYRVTHANDLIPKLPPGIFGYKHSRTEYWESKPSMDNAASTYRCYGQEPADCNRNATGIDSKVHVTYAGMNVTCNKS", "modifications": "Feruloyl Esterase A2"}, "B3": {"name": "Sphingobium wenxiniae (PytH) Esterase (protein, listed as Sphingobium wenxiniae)", "chain": "MTVTDIILIHGALNRGACYDAVVPLLEARGYRVHAPDLTGHTPGDGGHLSVVDMEHYTRPVADILARAEGQSILLGHSLGGASISWLAQHHPDKVAGLIYLTAVLTAPGITPETFVLPGEPNRGTPHALDLIQPVDEGRGLQADFSRLERLREVFMGDYPGEGMPPAEQFIQTQSTVPFGTPNPMEGRALEIPRLYIEALDDVVIPIAVQRQMQKEFPGPVAVVSLPASHAPYYSMPERLAEAIADFADAPAEYRQTATKAGPDRPAGADGGRADRADLP"}, "B4": {"name": "Bacillus thuringiensis Lipase (Lip1) (protein, listed as Bacillus thuringiensis)", "chain": "MRLMRRCVALLIVFFIMAPMISTNVRAGVVKELKTGFPDQEVFTPGEWFLGQKPANYDENKPPILFVQGRNGNADSWYGKTVYHDINDMYDYALKAGYQTVFIQLYDAAGKGSASQWDNGKLLAQKLEEIYNHFGKKVNIVAHSKGGIDTQAALVGYGANRFVGNVITLATPHHGSNLADLSYSWWAGWLASILGQKDDGTYSLQMGEMAKFRSTIDNNPAAKLNRYYTVTGTSWGPVFSALSMGGLYLSSYGSNDGLVNECSAKLPYGTHLFTDSRFDHDNIRKGSAVFARIEPYLRTANVPVPALVASSTSSNENIEQLNTTSNQSILGGELPQNQWIEQTVAVDKKAEGIVSILTASSDVEVQMISPKGKVYTNKDSVITTGEGESFFGGATIRTFKFDKMDVGEWKVKMMTKQSKDAYLVVSDYKTGAPFVLQMPTKVKANKSEYKLKKSPVAPEMKGDLSITVRVVNKEGKLVSEFNELQNVNNNTFTGALKNIKQPGVYNVTMDIKGMNKEGKSYSRTIVKSVYVEK", "modifications": "Lipase (Lip1 H192)"}}, "type_in_all_cases": "in vivo", "key": {"[1]": {"tested_on": "soybean cyst nematode (SCN, Heterodera glycines)", "assay": "Controlled environment soybean seed treatment trial: SCN cysts on roots", "settings": "Table 16"}, "[2]": {"tested_on": "SCN juveniles (SCN HG type 1.2.5.7, race 2)", "text": "To identify an additional esterase enzyme with efficacy in reducing SCN viability, we performed an in-vitro plate assay with a Pseudomonas sp. esterase (SEQ ID NO: 248) free enzyme direct treatment. The Pseudomonas sp. esterase (SEQ ID NO: 248) was produced by fermentation in Bacillus subtilis. The enzyme was cloned into a Bacillus expression plasmid p1797 with isopropyl β-d-1-thiogalactopyranoside (IPTG) inducible expression. The plasmid was transformed into B. subtilis, and the gene sequence was confirmed. The strain was grown in rich media until an optical density (OD) 0.2-0.5 was reached. Enzyme expression was then induced by addition of […] IPTG. Following the culture harvest, cells were removed by filtration through a […] filter. The culture filtrate containing the secreted enzyme was then collected and used for further applications.\n(§1) SCN eggs were obtained from SCN HG type 1.2.5.7, race 2. Eggs were rinsed 4 times with sterile water. Eggs were transferred to a 6-well plate and resuspended in 5 mL of 3 mM ZnSO4. The plate was sealed with parafilm, covered with aluminum foil to prevent light from entering the plate, and placed in a plate growth chamber at 25° C. and 80% relative humidity. After 6-7 days of incubation, an estimate of hatched SCN juveniles was obtained from the well to determine the overall number of juveniles per 10 μL. The concentration of the hatchery solution was adjusted until it consisted of 20-30 juveniles per 10 μL.\nPotato dextrose agar media containing chloramphenicol and chlortetracycline was prepared and added to sterile twenty-four-well cell culture plates (1 mL per well). The plates were divided according to the pre-determined N-value for each treatment (N=12-24). Each treatment being tested was added to the agar surface within each well at a rate of 40 μL per well. Without allowing the treatments to dry, 10 μL of the prepared nematode mixture was added to the agar surface within each well.\nTo quantify the treatments' effects on nematode viability, the nematodes were examined under a dissecting microscope at 20× magnification. Initial (T0) values for the number of live juveniles, number of dead juveniles and total number of juveniles were recorded immediately after preparation of each well. The plates were then wrapped in parafilm around the open edge, encased in aluminum foil, and placed in secondary containment. The secondary containment was placed in a plant growth chamber at 25° C. and 80% relative humidity. At approximately 24 hours post addition of juveniles, the plates were evaluated, and the number of live juveniles, dead juveniles and total number of juveniles were recorded (T24).\nThe difference in percent death at T0 vs T24 was calculated by subtracting the percent dead at TO [(#dead juveniles/total #juveniles)×100] from the percent dead at T24 [(#dead juveniles/#total juveniles originally present)×100]. […] If the ANOVA indicated a significant difference existed among treatments, Tukey's HSD post hoc test was used to perform a pairwise contrast between each set of treatments. Different letters denote statistically significant results at P<0.05.\nas §1, with “from” for “from SCN”, “rinsed four” for “rinsed 4”, “and 80-90%” for “and 80%”, “from each” for “from the”\nPotato dextrose agar media containing chloramphenicol and chlortetracycline was prepared and added to sterile twenty-four-well cell culture plates (1 mL per well). […]"}, "soybean": {"tested_on": "soybean", "assay": "Field trial: Feruloyl Esterase soybean seed treatment, yield", "settings": "for Yield: soybean seed treatment, 1.0 fl oz/unit with Control Base Package", "text": "1 fl oz/unit of Feruloyl Esterase (SEQ ID NO:91) was coated onto soybean seeds treated with Fludioxinil fungicide, metalaxyl fungicide, thiamethoxam […], Seedwork 1037L polymer, and Sensient Red (colorant). A control treatment without esterase enzyme was also created. The seed treated with esterase and control seed was planted in replicated trials distributed across 5 replicated plots with 4 replicates of 30 ft^2 each at each site."}, "corn": {"tested_on": "corn", "assay": "Field trial: PytH Esterase corn seed treatment, yield", "settings": "for Yield: corn seed treatment, 0.5 fl oz/unit with Control Base Package", "text": "0.5 fl oz/unit of PythH Esterase from recombinant Bacillus subtilis fermentation (SEQ ID NO: 255) was coated onto Hybrid corn seeds treated with Fludioxinil fungicide, ipconazole fungicide, peridium 1006 polymer, and Sensient Red (colorant). A control treatment without esterase enzyme was also created. The seed treated with esterase and control seed was planted in replicated trials distributed across 10 replicated plots with 4 replicates of 100 ft2 each at each site."}, "[3]": {"tested_on": "Diamondback moth (Plutella xylostella)", "assay": "Diet-surface overlay (DSO) bioassay", "settings": "Table 44, Lipase 0.14 U/mL diet", "method": "(§2) Diet-surface overlay bioassays are conducted with artificial diet mixes without antibiotics in 1.5 cm^2 cell bioassay trays(s). Artificial diets are commercially available from Southland Products Inc. Diets were prepared by dispersing 0.5 mL of molten diet to each 1.5 cm^2 cell. After solidification, 0.1 mL enzyme treatments were dispersed on top of diet in each cell and the tray was gently rocked in an orbital shaker to spread the liquid uniformly over the diet surface. Trays were placed under clean airflow until the surface of each cell was uniformly dried. One or two 16-cell sections were used per treatment (the number in larvae treated was 16 or 32).\n(§3) One healthy first instar larva was placed into each treatment cell, each 16-cell section was covered with a re-sealable lid and incubated at 27° C. and light-dark period of 16:8 hrs. After 7 days, and according to the species, the number of individuals in the following developmental categories was recorded.\n(§4) Diamondback moth (Plutella xylostella): Dead Larva (lack of movement), Larva Stage I (≤50% relative size), Larva Stage II (100% relative size, full size), Early Pupa (light green color), Late Pupa (light-dark brown color), and Adult.\n(§5) Negative/untreated controls were treated with filtered water and positive controls were treated with lethal doses of Bacillus thuringiensis subsp. Kurstaki (Btk) spores at 1000 ppm."}, "[4]": {"tested_on": "Btk resistant Diamondback moth", "assay": "Diet-surface overlay (DSO) bioassay", "settings": "Table 45", "method": "as §2, §3, §4, §5\nHowever, both neutral proteases reduced the number of individuals reaching adult stage."}}, "note": "Where two headings read alike, the source gives them in different places.", "data": [{"molecule": "B1", "values": [{"measurement": "% Comparison to Control", "setting": "[1]; base control = 100%, change in brackets", "result": "90% (−10%)"}, {"measurement": "Average cysts per g of root tissue", "setting": "[1]; seed treatment, soybean 2830E3, concentrate = 4× volumetric concentration, base control 244.3", "result": "220.2 cysts per g of root tissue"}, {"measurement": "Difference in Percent Death of Nematodes for 0 to 24 Hours", "setting": "[2]; Table 17, 40 μL per well, water control 4%", "result": 22, "unit": "%"}, {"measurement": "Difference in Percent Death of Nematodes for 0 to 24 Hours", "setting": "[2]; Table 32, 40 μL of each treatment per well, water only 4%", "result": 22, "unit": "%"}, {"measurement": "difference in percent death during 24 hours", "setting": "[2]; text to Table 32", "result": 22, "unit": "%"}]}, {"molecule": "B2", "values": [{"measurement": "Yield", "setting": "soybean; control 63.99", "result": 64.86, "unit": "Bu/A"}, {"measurement": "Yield", "setting": "soybean; control 4303.4", "result": 4361.9, "unit": "Kg/ha"}, {"measurement": "yield versus base seed treatment package, in words", "setting": "soybean; text to Table 56, 1 fl oz/unit", "result": "increased the yield"}]}, {"molecule": "B3", "values": [{"measurement": "Yield", "setting": "corn; control 205.5", "result": 208.8, "unit": "Bu/A"}, {"measurement": "Yield", "setting": "corn; control 13820.1", "result": 14042.0, "unit": "Kg/ha"}, {"measurement": "yield versus base seed treatment package, in words", "setting": "corn; text to Table 57, 0.5 fl oz/unit", "result": "increased the yield"}]}, {"molecule": "B4", "values": [{"measurement": "Dead Larva", "setting": "[3]; individuals of n = 16 after 7 days, water 0", "result": 0}, {"measurement": "Larva Stage I", "setting": "[3]; n = 16, water 0", "result": 0}, {"measurement": "Larva Stage II", "setting": "[3]; n = 16, water 0", "result": 0}, {"measurement": "Early Pupa", "setting": "[3]; n = 16, water 3", "result": 3}, {"measurement": "Late Pupa", "setting": "[3]; n = 16, water 3", "result": 13}, {"measurement": "Adult", "setting": "[3]; n = 16, water 10", "result": 0}, {"measurement": "Dead Larva", "setting": "[4]; Btk resistant strain, individuals of n = 32 after 7 days, U/mL diet: SEQ 76 1.4, Bc 3.8, Pf 5.2, water 3", "result": 1}, {"measurement": "Adult", "setting": "[4]; n = 32, doses as E86, water 0", "result": 0}, {"measurement": "Larva Stage I", "setting": "[4]; n = 32, doses as E86, water 0", "result": 9}, {"measurement": "Larva Stage II", "setting": "[4]; n = 32, doses as E86, water 0", "result": 12}, {"measurement": "Early Pupa", "setting": "[4]; n = 32, doses as E86, water 7", "result": 10}, {"measurement": "Late Pupa", "setting": "[4]; n = 32, doses as E86, water 22", "result": 0}]}]}
